In patent US20100015155A1:

Biological target: human soluble Abeta (1-40) (human) (UniProt P05067)
Assay: KinExA equilibrium, antigen on sepharose beads, soluble Abeta (1-40) titrated, 37 C

Sequence of human soluble Abeta (1-40) (human) (P05067 672-711 limits assumed): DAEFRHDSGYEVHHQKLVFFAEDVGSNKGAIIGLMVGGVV

Kd: 0.24 nM
Substance: murine 266 Fab (Fab fragment of the murine monoclonal antibody designated 266)
